{"source": "paper PMC7820951", "proteins": {"B1": {"name": "ADF (F420-dependent alcohol dehydrogenase) (Methanoculleus thermophilus) (protein)", "chain": "MKTQIGYFASLEQYRPMDALEQAIRAEKVGFDSVWVDDHFHPWYHDNAQSAQAWAWMGAALQATKKVFISTCITCPIMRYNPAIVAQTFATLRQMYPGRVGVAVGAGEAMNEVPVTGEWPSVPVRQDMTVEAVKVMRMLWESDKPVTFKGDYFTLDKAFLYTKPDDEVPLYFSGMGPKGAKLAGMYGDHLMTVAAAPSTLKNVTIPKFEEGAREAGKDPSKMEHAMLIWYSVDPDYDKAVEALRFWAGCLVPSMFKYKVYDPKEVQLHANLVHCDTIKENYMCATDAEEMIKEIERFKEAGINHFCLGNSSPDVNFGIDIFKEVIPAVRD"}}, "substrate": "CC(C)O", "assay": "purified protein", "conditions": "alcohol oxidation; cofactor F420"}
{"protein": "B1", "values": [{"measurement": "Km", "value": 1300, "unit": "µM"}, {"measurement": "kcat", "value": 1.7, "unit": "s⁻¹"}]}
